Here are results for one substance from patent US20150079071A1, “NON-CATALYTIC DOMAIN TARGETS IN MATRIX METALLOPROTEASE PROTEINS FOR CANCER THERAPIES” (THE REGENTS OF THE UNIVERSITY OF CALIFORNIA, priority 2012, published 2015).

Test [1] addresses annexin A2 (ANXA2), endogenous, in conditioned medium of SCp2 cells (mouse) (UniProt P07356). Nature of the test: anti-Flag IP from conditioned medium, LC-MS/MS spectra counts; selection criterion that ANXA2 passed.
For test [2], the target named is myristoylated alanine-rich C-kinase substrate (MARCKS), endogenous, in conditioned medium of SCp2 cells (mouse) (UniProt P26645). Nature of the test: anti-Flag IP from conditioned medium, LC-MS/MS spectra counts; selection criterion that MARCKS passed.
myristoylated alanine-rich C-kinase substrate (MARCKS), endogenous, in conditioned medium of SCp2 cells (mouse), sequence (P26645 2-309 limits assumed): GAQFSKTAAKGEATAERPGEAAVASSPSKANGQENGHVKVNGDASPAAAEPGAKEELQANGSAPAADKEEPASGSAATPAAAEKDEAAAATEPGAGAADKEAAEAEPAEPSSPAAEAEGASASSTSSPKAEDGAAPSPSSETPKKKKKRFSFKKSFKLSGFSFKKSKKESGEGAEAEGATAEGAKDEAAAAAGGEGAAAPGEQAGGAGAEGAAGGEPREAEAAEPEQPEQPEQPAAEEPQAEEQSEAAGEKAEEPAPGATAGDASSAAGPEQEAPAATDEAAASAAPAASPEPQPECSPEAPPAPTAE

annexin A2 (ANXA2), endogenous, in conditioned medium of SCp2 cells (mouse), sequence (P07356 2-339 limits assumed): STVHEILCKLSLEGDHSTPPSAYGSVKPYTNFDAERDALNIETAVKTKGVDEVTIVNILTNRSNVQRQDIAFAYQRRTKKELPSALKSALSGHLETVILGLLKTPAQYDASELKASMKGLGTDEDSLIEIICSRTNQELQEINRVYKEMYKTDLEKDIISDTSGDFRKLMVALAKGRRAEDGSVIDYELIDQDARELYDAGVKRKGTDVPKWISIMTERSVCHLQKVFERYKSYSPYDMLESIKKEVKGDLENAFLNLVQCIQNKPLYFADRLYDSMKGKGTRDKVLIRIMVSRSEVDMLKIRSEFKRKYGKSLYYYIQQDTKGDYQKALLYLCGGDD

Consider “Flag-tagged full-length human MMP3 (FL) (from UniProt P08254 18-477) (enzyme)”, for which the fold change of abundance (spectra counts) in FL compared with dPEX in test [1] and in test [2] was above 1.5 fold each time.
